From patent publication US20190300590A1 (PROTAGONIST THERAPEUTICS, published 2019)
Bridges are numbered along the chain shown (N, C = ends). Where no end group is shown, it is not given here. [ ]: non-standard residue; d: D form. 2Nal = N[C@@H](Cc1ccc2ccccc2c1)C(=O)O; AEF = NCCOc1ccc(C[C@H](N)C(=O)O)cc1; AllylGly = C=CC[C@H](N)C(=O)O; Pen = CC(C)(S)[C@H](N)C(=O)O; Thp = NC1(C(=O)O)CCOCC1; Abu = CC[C@H](N)C(=O)O; AEA = NCCOCC(=O)O

Legend:
Rat IL-23R_huFC [1] = biological target: T1, Rat IL-23R_huFC (rat; human, UniProt F1LX96 39-369); test: rat IL-23R competitive ELISA
T1 sequence: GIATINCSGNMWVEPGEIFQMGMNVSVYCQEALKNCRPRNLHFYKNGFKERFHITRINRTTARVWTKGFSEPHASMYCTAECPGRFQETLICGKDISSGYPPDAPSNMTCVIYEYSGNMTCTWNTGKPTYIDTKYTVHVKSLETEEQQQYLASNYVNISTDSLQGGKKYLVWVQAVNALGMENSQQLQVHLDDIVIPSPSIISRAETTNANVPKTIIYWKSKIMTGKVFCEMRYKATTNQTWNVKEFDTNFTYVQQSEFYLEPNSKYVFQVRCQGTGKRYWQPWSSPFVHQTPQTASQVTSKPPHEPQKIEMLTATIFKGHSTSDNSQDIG

Rat IL-23R_huFC [2] = biological target: Rat IL-23R_huFC (rat); test: rat ELISA vs IL-23
IL23R_huFC [3] = biological target: T2, IL23R_huFC (human, UniProt Q5VWK5 24-353); test: human ELISA vs IL-23
T2 sequence (looked up): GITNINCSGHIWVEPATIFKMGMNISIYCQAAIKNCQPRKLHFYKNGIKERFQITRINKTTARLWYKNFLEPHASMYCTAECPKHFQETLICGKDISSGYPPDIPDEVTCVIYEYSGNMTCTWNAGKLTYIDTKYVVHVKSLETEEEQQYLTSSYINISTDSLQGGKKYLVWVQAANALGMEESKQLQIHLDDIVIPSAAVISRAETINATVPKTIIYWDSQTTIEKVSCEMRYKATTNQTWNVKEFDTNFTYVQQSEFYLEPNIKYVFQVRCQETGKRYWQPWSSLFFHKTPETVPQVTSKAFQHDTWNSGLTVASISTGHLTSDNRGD

IL23R_huFC [4] = biological target: T2, IL23R_huFC; test: human ELISA vs IL-23; remark: listed apart in the source
IL23R_huFC [5] = biological target: T2, IL23R_huFC; test: human ELISA vs IL-23; remark: listed apart in the source
Rat IL-23R_huFC [6] = biological target: Rat IL-23R_huFC (rat); test: rat ELISA vs IL-23; remark: listed apart in the source
Rat IL-23R_huFC [7] = biological target: Rat IL-23R_huFC (rat); test: IL-23/IL-23R competitive binding ELISA, rat
Cyno IL-23R_huFC = biological target: T3, Cyno IL-23R_huFC (cyno, UniProt G7NWY5 24-353); test: IL-23/IL-23R competitive binding ELISA, cyno
T3 sequence: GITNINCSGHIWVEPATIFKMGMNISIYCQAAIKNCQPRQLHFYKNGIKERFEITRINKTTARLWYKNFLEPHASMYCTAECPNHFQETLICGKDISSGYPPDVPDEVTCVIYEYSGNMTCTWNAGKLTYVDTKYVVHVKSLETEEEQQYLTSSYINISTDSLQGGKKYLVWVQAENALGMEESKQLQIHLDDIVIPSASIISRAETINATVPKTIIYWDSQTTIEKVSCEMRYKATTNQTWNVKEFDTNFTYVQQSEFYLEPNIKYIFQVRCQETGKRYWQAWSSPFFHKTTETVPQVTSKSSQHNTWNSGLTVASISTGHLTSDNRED

IL23R_huFC [8] = biological target: T4, IL23R_huFC (human, UniProt Q5VWK5 24-353); test: IL23-IL23R competitive ELISA, IC50 grade
T4 sequence (looked up): T2 sequence (looked up)

IL23R_huFC [9] = biological target: T2, IL23R_huFC; test: human ELISA vs IL-23; remark: listed apart in the source
[10] = biological target: T5, IL-23R on human cells (IL-23R-expressing DB cells; human NK cells) (human, UniProt Q5VWK5 24-629); test: cell-based or functional assay
T5 sequence (looked up): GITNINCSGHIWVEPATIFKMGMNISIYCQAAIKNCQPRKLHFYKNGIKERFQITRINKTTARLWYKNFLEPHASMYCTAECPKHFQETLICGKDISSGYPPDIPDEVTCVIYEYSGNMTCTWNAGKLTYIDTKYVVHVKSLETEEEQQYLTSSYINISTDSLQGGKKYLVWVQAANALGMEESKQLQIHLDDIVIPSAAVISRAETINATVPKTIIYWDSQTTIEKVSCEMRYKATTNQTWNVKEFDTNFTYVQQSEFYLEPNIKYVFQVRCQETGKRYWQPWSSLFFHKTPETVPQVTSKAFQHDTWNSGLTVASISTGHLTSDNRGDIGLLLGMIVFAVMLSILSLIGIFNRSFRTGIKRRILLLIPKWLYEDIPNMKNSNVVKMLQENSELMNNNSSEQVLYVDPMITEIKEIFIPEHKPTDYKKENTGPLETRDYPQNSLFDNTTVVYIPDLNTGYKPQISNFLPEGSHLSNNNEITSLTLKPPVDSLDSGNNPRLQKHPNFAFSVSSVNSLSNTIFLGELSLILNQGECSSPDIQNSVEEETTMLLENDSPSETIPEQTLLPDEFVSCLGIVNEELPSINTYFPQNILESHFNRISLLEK

Rat IL-23R_huFC [11] = biological target: Rat IL-23R_huFC (rat); test: rat ELISA vs IL-23; remark: listed apart in the source
IL23R_huFC [12] = biological target: T4, IL23R_huFC; test: IL23-IL23R competitive ELISA, IC50 grade; remark: listed apart in the source

Binder: CQTWQCYWRXNGXK (Ac-; [Aib]; [AEA]; [(D)Lys]; -NH2) [Ac-CQTWQCYWR-[Aib]-NG-[AEA]-[(D)Lys]-NH2]
- IC50 (Rat IL-23R_huFC [1]): 1060 nM

Binder: CQTWQXYWLENG (as bracketed in name; cyclized via Cys and Pen) [Ac-CQTWQ-[Pen]-YW-[α-MeLeu]-ENG-NH2]
- IC50 (Rat IL-23R_huFC [2]): 100 to 1000 nM
- IC50 (IL23R_huFC [3]): 100 to 1000 nM

B1: Ac-CQTWQ-[Pen]-YW-[(D)Asn]-ENG-NH2 (peptide)
peptide: Ac-CQTWQ[Pen]YW[dN]ENG-NH2
modifications: disulfide 1-6
SMILES: CC(=O)N[C@H]1CSSC(C)(C)[C@@H](C(=O)N[C@@H](Cc2ccc(O)cc2)C(=O)N[C@@H](Cc2c[nH]c3ccccc23)C(=O)N[C@H](CC(N)=O)C(=O)N[C@@H](CCC(=O)O)C(=O)N[C@@H](CC(N)=O)C(=O)NCC(N)=O)NC(=O)[C@H](CCC(N)=O)NC(=O)[C@H](Cc2c[nH]c3ccccc23)NC(=O)[C@H]([C@@H](C)O)NC(=O)[C@H](CCC(N)=O)NC1=O
- IC50 (IL23R_huFC [4]): 1000 to 10000 nM

Binder: [AllylGly]ADWV[AllylGly]YWHTFG (staple 1-6 (inferred)) [SEQ ID NO. 1000 peptide (drawing CHEM-US-00114)]
- IC50 (IL23R_huFC [5]): ~20000 nM

Binder: XADWVCYWHTFGXK (as bracketed in name; cyclized via Cys and Pen) [Ac-[(D)Pen]-ADWVCYWHTFG-[AEA]-[(D)-Lys]-NH2]
- IC50 (Rat IL-23R_huFC [6]): 1000 to 10000 nM

Binder: Ac-[Pen]RTWQCYWRKFG[AEA][dK]-NH2 (disulfide 1-6 (inferred)) [Ac-[Pen]-RTWQCYWRKFG-[AEA]-[(D)-Lys]-NH2]
- IC50 (Rat IL-23R_huFC [2]): 100 to 1000 nM

Binder: Ac-[Abu]QTWQC[AEF][2Nal][Thp]ENN-NH2 (thioether 1-6) [Peptide 980]
- IC50 (Rat IL-23R_huFC [7]): 3 nM
- IC50 (Cyno IL-23R_huFC): 1.3 nM

Binder: CADWVCYWHTFGAK (not fully specified; Ac-; [β-Ala]; [(D)Lys]; DIG through Lysine) [(Ac-CADWVCYWHTFG-[β-Ala]-[(D)Lys]-OH)2DIG]
- IC50 (IL23R_huFC [8]): 25 to 100 nM

Binder: [AllylGly]ADWV[AllylGly]YWHTFG (staple 1-6 (inferred)) [SEQ ID NO. 1001 peptide (drawing CHEM-US-00115)]
- IC50 (IL23R_huFC [5]): ~30000 nM

B2: [Ac-[(D)Lys]-Cyclo-[[Abu]-QTWQC]-[Phe(4-OMe)]-[2-Nal]-[α-MeLys]-ENG-NH2]2 PEG25 (peptide)
peptide: KXQTWQCFXKENG
modifications: not fully specified; as bracketed in name; thioether cyclo; PEG25 linker through α-MeLys
- IC50 (IL23R_huFC [9]): < 10 nM
- pStat3 HTRF IC50 [10]: < 10 nM
- IC50 (Rat IL-23R_huFC [11]): 10 to 25 nM

Binder: H-FPTWEWYWCNRD-NH2 (also: oxidized dimer via intermolecular Cys9-Cys9 disulfide) [(Hy-FPTWEWYWCNRD-NH2)2, oxidized dimer through the cysteine]
- IC50 (IL23R_huFC [12]): 1000 to 10000 nM
